According to patent publication EP4541814A1 (Cytiva BioProcess R&D AB, dated 2025):
Where a chain is given by its changes, count along the chain named.

B1: vh327 (SEQ ID NO:118) (VHH)
VHH: QVQLQQSGGGSVQAGGSLRLSCTISGRTLSDYTMGWFRQRPGKEREFVAAISWSGAYTKYNDSVKGRFTISRDNAKNTVYLQMNSLKPEDTAVYYCAAGPTGLLSKKATPADYDYWGQGTQVTVSS
B2: vh328 (SEQ ID NO:119) (VHH)
VHH: B1 VHH with N61Q
B3: vh269 (SEQ ID NO:120) (VHH)
VHH: B1 VHH with N61T
B4: vh270 (SEQ ID NO:121) (VHH)
VHH: B1 VHH with N61S
B5: vh271 (SEQ ID NO:122) (VHH)
VHH: B1 VHH with N61V
B6: Nb273 (SEQ ID NO:124) (VHH)
VHH: B1 VHH with N61A, N77S
B7: Nb274 (SEQ ID NO:125) (VHH)
VHH: B1 VHH with N61A, N77E
B8: vh275 (SEQ ID NO:126) (VHH)
VHH: B1 VHH with N61A, N77Q
B9: Nb329 (SEQ ID NO:127) (VHH)
VHH: B1 VHH with N61A, N77D
B10: Nb276 (SEQ ID NO:128) (VHH)
VHH: B1 VHH with N61A, Y80L
B11: Nb277 (SEQ ID NO:129) (VHH)
VHH: B1 VHH with N61A, Y80V
B12: vh278 (SEQ ID NO:130) (VHH)
VHH: B1 VHH with N61A, Y80A
B13: vh279 (SEQ ID NO:131) (VHH)
VHH: B1 VHH with N61A, Y80F
B14: vh330 (SEQ ID NO:132) (VHH)
VHH: B1 VHH with N61A, Y80W
B15: vh280 (SEQ ID NO:133) (VHH)
VHH: B1 VHH with N61A, S85N
B16: vh281 (SEQ ID NO:134) (VHH)
VHH: B1 VHH with N61A, S85T
B17: vh282 (SEQ ID NO:135) (VHH)
VHH: B1 VHH with N61A, S85Q
B18: vh284 (SEQ ID NO:137) (VHH)
VHH: B1 VHH with N61A, V93A
B19: vh286 (SEQ ID NO:139) (VHH)
VHH: B1 VHH with N61A, V93I
B20: vh331 (SEQ ID NO:140) (VHH)
VHH: B1 VHH with N61A, V93L
B21: vh257 (SEQ ID NO:101) (VHH)
VHH: B1 VHH with R40T, N61A
B22: vh258 (SEQ ID NO:102) (VHH)
VHH: B1 VHH with R40I, N61A
B23: vh341 (SEQ ID NO:103) (VHH)
VHH: B1 VHH with R40K, N61A

target: T1, AAV9 viral particles (adeno-associated virus 9); test: SPR (Biacore), polypeptide amine-coupled to CM5, AAV9 analyte; response normalized to SEQ ID NO:80

Binder | Normalized AAV9 binding capacity (%)
B1 | 109
B2 | 110
B3 | 85
B4 | 103
B5 | 105
B6 | 82
B7 | 91
B8 | 94
B9 | 111
B10 | 92
B11 | 80
B12 | 99
B13 | 98
B14 | 112
B15 | 100
B16 | 103
B17 | 88
B18 | 109
B19 | 112
B20 | 109

target: T1, AAV9 viral particles; test: as above; remark: another data set of the same source

Binder | Normalized AAV9 binding capacity (%)
B21 | 69
B22 | 87
B23 | 83
